Data taken from US20230416760A1 (CURATORS OF THE UNIVERSITY OF MISSOURI, published 2023).
One block for each molecule: values may come before it.

Assays:
[1] = test system: all three BADCs (recombinant BADC1, BADC2, BADC3)
[2] = target: α-carboxyltransferase (α-CT) subunit of hetACCase, AT2G38040, Arabidopsis thaliana (Arabidopsis thaliana) (UniProt Q9LD43); experiment: co-IP from A. thaliana chloroplast lysate with anti-α-CT antibody, LC-MS/MS, n=7
[3] = target: BCCP2 (AT5G15530), biotin carboxyl carrier protein isoform 2, Arabidopsis thaliana (Arabidopsis thaliana) (UniProt Q9LLC1); experiment: co-IP from A. thaliana chloroplast lysate with anti-BCCP2 antibody, LC-MS/MS, n=7
[4] = target: the molecule itself; experiment: intact mass analysis and non-reducing SDS-PAGE of purified recombinant protein
[5] = target: T1, heteromeric acetyl-coenzyme A carboxylase (hetACCase) of Arabidopsis thaliana (Arabidopsis thaliana); experiment: inhibition of ACCase activity in 20-day-old A. thaliana leaf extracts by increasing concentrations of recombinant BADC1
T1 chain 1: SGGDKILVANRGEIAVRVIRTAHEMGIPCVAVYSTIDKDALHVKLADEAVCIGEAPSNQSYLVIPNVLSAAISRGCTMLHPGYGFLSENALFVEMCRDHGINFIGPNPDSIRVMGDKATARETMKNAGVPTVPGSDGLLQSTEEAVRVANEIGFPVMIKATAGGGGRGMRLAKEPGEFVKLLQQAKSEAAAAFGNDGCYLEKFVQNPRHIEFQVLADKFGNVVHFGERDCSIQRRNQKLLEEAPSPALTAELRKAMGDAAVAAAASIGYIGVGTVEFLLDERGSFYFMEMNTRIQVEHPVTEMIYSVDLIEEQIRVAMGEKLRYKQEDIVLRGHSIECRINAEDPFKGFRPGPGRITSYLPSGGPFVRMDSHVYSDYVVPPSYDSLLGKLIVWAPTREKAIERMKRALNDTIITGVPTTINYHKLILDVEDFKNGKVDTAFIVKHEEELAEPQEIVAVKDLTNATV
T1 chain 2: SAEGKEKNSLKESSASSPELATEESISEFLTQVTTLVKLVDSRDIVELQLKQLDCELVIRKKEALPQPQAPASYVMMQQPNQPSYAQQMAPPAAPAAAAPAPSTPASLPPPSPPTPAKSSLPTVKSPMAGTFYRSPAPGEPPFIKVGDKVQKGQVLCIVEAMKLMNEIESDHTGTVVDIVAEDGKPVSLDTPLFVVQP
T1 chain 3: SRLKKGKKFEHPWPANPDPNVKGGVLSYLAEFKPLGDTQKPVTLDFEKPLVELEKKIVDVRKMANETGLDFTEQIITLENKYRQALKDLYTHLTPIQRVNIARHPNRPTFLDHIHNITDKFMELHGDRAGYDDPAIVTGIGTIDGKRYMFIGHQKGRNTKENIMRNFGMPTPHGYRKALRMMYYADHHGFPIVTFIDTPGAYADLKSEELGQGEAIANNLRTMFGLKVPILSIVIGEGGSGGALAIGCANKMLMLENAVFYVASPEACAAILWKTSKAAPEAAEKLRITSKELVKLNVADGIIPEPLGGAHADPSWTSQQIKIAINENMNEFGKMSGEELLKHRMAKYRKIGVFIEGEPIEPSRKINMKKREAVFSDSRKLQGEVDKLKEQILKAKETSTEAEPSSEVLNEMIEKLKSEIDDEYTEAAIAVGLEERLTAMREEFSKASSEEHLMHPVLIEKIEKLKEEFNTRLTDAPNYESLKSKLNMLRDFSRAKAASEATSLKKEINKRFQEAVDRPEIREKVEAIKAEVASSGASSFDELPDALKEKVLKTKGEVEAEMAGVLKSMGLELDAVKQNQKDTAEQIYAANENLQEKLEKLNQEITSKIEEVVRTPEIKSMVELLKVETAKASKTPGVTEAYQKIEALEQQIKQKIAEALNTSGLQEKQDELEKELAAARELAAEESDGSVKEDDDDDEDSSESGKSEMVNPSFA
T1 chain 4: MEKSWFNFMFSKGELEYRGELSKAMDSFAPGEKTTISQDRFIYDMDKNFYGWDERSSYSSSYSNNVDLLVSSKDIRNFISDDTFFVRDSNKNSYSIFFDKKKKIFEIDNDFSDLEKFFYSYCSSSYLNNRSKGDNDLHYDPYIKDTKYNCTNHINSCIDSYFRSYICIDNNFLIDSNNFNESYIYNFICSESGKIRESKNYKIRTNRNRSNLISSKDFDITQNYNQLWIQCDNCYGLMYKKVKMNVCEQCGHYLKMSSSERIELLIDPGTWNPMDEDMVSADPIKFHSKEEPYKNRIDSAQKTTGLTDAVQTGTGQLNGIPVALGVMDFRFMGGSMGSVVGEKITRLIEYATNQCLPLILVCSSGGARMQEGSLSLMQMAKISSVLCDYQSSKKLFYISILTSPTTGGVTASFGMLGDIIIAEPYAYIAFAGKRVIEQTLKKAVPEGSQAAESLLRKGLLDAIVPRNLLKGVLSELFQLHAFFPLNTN
Protocol: ACCase activity was monitored in vitro in 20-day-old A. thaliana leaf extracts with increasing concentrations of recombinant BADC1. Specific activity was determined for each experiment and 0 μM controls were normalized to 1. Specific activity values for controls ranged from 0.84-2.00 nmol/min/mg. Each data point represented the average of four biological replicates, with each biological replicate comprised of four light-adapted leaves.

Molecule: heteromeric acetyl-coenzyme A carboxylase (hetACCase) of Arabidopsis thaliana
- hetACCase activity in ten-day-old A. thaliana silique extracts (H14CO3 incorporation), 10 µM recombinant protein [1]: all three BADCs inhibited hetACCase activity by 25 to 37%

- replicates (of seven) of the co-IP in which the protein was present [3]: 6 replicates
B1: BADC2 (AT1G52670), Single hybrid motif protein, Arabidopsis thaliana (other)
chain: TTLRSVKAIQLSTVPPAETEAIADVKDSDETKSTVVNTHLMPKSSEVEALISEITDSSSIAEFELKLGGFRLYVARKLTDESSPPPQQIQPVVAASATPEGVHTNGSATSSSLAITKTSSSSADRPQTLANKAADQGLVILQSPTVGYFRRSKTIKGKRTPTICKEKDIVKEGQVLCYIEQLGGQIPVESDVSGEIVKILREDGEPVGYNDALITVLPSFPGIKKLQ
notes: His-tagged or untagged from E. coli, bait/prey fusion in yeast two-hybrid, native protein in co-IPs; also called AtBADC2
- replicates (of seven) of the co-IP in which the protein was present [2]: 2 replicates
- binding result [4]: no binding

- replicates (of seven) of the co-IP in which the protein was present [3]: 7 replicates
- Ki [5]: ~4.3 µM
B2: BADC1 (AT3G56130), biotin/lipoyl attachment domain-containing protein, Arabidopsis thaliana (other)
chain: AKAAKSSTTTISDGSSDASVSDGKKTVRRITFPKEVEALVHEMCDETEVAVLQLKVGDFEMNLKRKIGAATNPIPVADISPTVAPPIPSEPMNKSASSAPSPSQAKPSSEKVSPFKNTSYGKPAKLAALEASGSTNYVLVTSPAVGKFQRSRTVKGKKQSPSCKEGDAIKEGQVIGYLHQLGTELPVTSDVAGEVLKLLSDDGDSVGYGDPLVAVLPSFHDINIQ
notes: Recombinant and yeast two-hybrid constructs were made without the transit peptide predicted by TargetP; also called AtBADC1
- replicates (of seven) of the co-IP in which the protein was present [2]: 1 replicates
